According to the nanobody polyreactivity screen of Harvey et al. (2022):

Assay: yeast display, Sf9 membrane polyspecificity reagent, FACS + sequencing; frameworks hold sequencing errors
Outline: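 Nanobodies from a synthetic yeast display library (Saccharomyces cerevisiae BJ5465), induced 36–48 hours with galactose, were stained 1 hour at 4 °C with 10% biotinylated, detergent-solubilized Sf9 membrane reagent, enriched on streptavidin microbeads, then FACS-sorted. Anti-HA (expression) and streptavidin (reagent binding) fluorescence set low and high (top ~1%) gates. Polyreactivity labels come from the gate of origin. Genes were colony-PCR amplified, MiSeq 2 × 250 sequenced and filtered by CDR length.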

QVQHVESGGGLVQAGGSLRLSCAASGSTFWYYDMGGYRQAPGKERELVAAISTRGDSTYYADSVKGRFTISRDNAKNTVYLQMNSLKPEDTAVYYCAKSRQSSGRVRFDYWGQGTQVTVSS
polyreactivity (PSR sort gate): low polyreactivity

QVQLVESGGGLVQAGGSLRLICAASGITIKRSAMGWYRQPPGKEREFVATISQSGTSTYYADSVKGLFTISRDNAKNTVYLQMNSLKPEDTAVYYCAADYIGYWYGYYSWGHGTQVTVSS
polyreactivity (PSR sort gate): low polyreactivity

QVQLGESGGGLVQAGGSLRLSCAASGFTFHKNAMGWYRQAPGKERELVAVISQSASSTYYSDSVKGRFTISRDIAKITVYLQMNGLKPEDTAVYYCNAKYYRYNRRNYWGQGTQVTVSS
polyreactivity (PSR sort gate): high polyreactivity

QVQLVESWGGLVQAGGSLRLSCAASGLTFNYYDMGWYRQAPGKERELVAAISRSGTNTSYADSVKGRFTISRDNAKNTVYLQMNSLKPEDTAVYYCNAAGVYLAAGPYTANFNYNYWGQGTQVTVSS
polyreactivity (PSR sort gate): low polyreactivity

QVQLVESGGGLVQAGGSLRLSCAASGSIFGYYAMGWYRQARGNERELGAAIRSTGSTNYADSVKGRFTISRDNAQNTVYLQMNSLKPEDTAVYYCAAGDITGGSGNWVVTPYDYGGQGTQVTVSS
polyreactivity (PSR sort gate): high polyreactivity

QVQLVESGGGLVQAGGSLSLSCAASGSILYINDMGWYRQAPGKERELVAAISWSGDSTIYADSVKGRFTISRDNAKNTVYLQMNSLKPEDTAVYYCNAVWYGGDMDYWGQGTQVTVSS
polyreactivity (PSR sort gate): low polyreactivity

QVQLVESGGGLVQAGGSLRLSCAASGIIFRYYAMGLYRQAPGKERELVAAISQGGGSTYYADSVKGRFTISRDNAKYTVYLPMKTLKPEDTAVYYCNTGRRHGLTQGGDYWGQGTQVTVSS
polyreactivity (PSR sort gate): high polyreactivity

QVQLVESGGGLVQAGGSLRLSCAASGSISGWYAMGWYRQAPGKERELVADISSIAGSTYYADSVKGRFTISRDNAKNTVYLQMNSLKPEDTAVYYCAADRGFYYEYDYWGQGTQVTVSS
polyreactivity (PSR sort gate): low polyreactivity

QVQLVESGGGLVQAGGSLRLSCAASGSIFPWYAMGWYRPAPGKERELVADITNGSSTNYADSVKGRFTISRDNAKNTVYLQMNSLKPEDTAVYYCARDGIGADGYDYWGQGTQVTVSS
polyreactivity (PSR sort gate): low polyreactivity

QDQHVESGGGLVQAGGSLRLICAASGSIFIANAMGWYRQAPGKERELVAAITLNGGSTYYADSVKGRFTISRDNAKNTVYLQMNSLKPEDTAVYYCAADWVWVAPQYWFVEYDYWGQGTQVTVSS
polyreactivity (PSR sort gate): low polyreactivity

QVQLVESGGGLVQAGGSLRLICDASGSIFRYYAMGWYRQAPGKERELVARISWRAGSTYADSVKGRFTISRDYAKNTVYLQINSQKPEDTAVYYCNADAHKDSWVGTSEYEYWGQGTQVTVSS
polyreactivity (PSR sort gate): high polyreactivity

QVQLVESGGGLVQAGGSLRLSCAATGRIFTINAMGWYRQAPGKERELVAGITKSGGITYYADSVKGRFTISRDNAKNTVYLQMNSLKPEDTAVYYCAAPFNRWRARTGFDYWGQGTQVTVSS
polyreactivity (PSR sort gate): high polyreactivity

QVQLVESGGGLDQAGGSLRLSCAASGSTFVSNAMGWYRQAPGKERELVAAISKSGGSTYYADSVKGRFTISRDNAKNTVYLQMNSLKPEDTAVYYCAKYNAKSFYGQYDYWGQGTQVTVSS
polyreactivity (PSR sort gate): high polyreactivity

QVQLVESGGGLVQAGGSLRLSCAASGFIYSSYAMGWYRQAPGKERELVAAITRNGGSTYYADSVKGRFTISRDNAKNTVYLQMNSLKPEDTAVYYCAAPRWRGVGRFDYWGQGSQVTVSS
polyreactivity (PSR sort gate): high polyreactivity

QVQLVESGGGLVQAGGSLRLSCAASGSTLPSNTMGWYRQAPGKERELVAAISRNGGSTYYADSVKGRFTISRDNAKNTVYLQMNSLKPEDTAVYYCNRVYRERYPYVLYGYWGQGTQVTVSS
polyreactivity (PSR sort gate): high polyreactivity

QVQLVESGGGLVQAGGSLRLSCAASGSTFYVNAMGCYKQAPGKEWELVAAIDGCDTYYADSVKGRFTISRDNAKKTVNLQMNSLKPDDTEVYYCAAESLPEISVGLGYWGQGTQVTVSS
polyreactivity (PSR sort gate): low polyreactivity

QVQLVESGGGLVQAGGSLRLSCAASGSTLGANAMGWYRQAPGKERELVAAISISDGDTYYADSVKGRFTISRDNAKNPVYLQMNSLKPEDTAVYYCAADYWFQYRWYDYWGQGTQVTVSS
polyreactivity (PSR sort gate): high polyreactivity
